In PMC10164591, “RNA binding proteins Smaug and Cup induce CCR4–NOT-dependent deadenylation of the nanos mRNA in a reconstituted system”:

How the values were obtained:
[1] = target: T1, MBP-Cup C (Drosophila melanogaster, UniProt Q9VMA3 771-1117); test: UV crosslinking; UV crosslinking: 16 mM HEPES pH 7.6, 50 mM K acetate, 1 mM Mg acetate, 0.8 mM ATP, 0.24 mg/ml yeast tRNA, 1 mM DTT, 10% glycerol, room temp; EMSA: deadenylation buffer with tRNA (omitted for A70 PABPC), 5% glycerol, 25 C; details: protein: recombinant; tags: N-terminal MBP; label: 5'-32P
T1 sequence: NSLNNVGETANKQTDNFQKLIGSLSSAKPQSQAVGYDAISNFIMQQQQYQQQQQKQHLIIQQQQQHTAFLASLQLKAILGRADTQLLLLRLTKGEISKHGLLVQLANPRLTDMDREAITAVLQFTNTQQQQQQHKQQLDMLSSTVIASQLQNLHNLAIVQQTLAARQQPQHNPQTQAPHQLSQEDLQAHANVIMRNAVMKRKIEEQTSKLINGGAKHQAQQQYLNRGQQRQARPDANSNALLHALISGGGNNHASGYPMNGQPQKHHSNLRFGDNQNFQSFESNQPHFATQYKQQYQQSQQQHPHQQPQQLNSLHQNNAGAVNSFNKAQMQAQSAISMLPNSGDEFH

[2] = target: T2, MBP-Cup NM (Drosophila melanogaster, UniProt Q9VMA3 1-770); test: as above; details: protein: recombinant; tags: N-terminal MBP; label: 5'-32P
T2 sequence: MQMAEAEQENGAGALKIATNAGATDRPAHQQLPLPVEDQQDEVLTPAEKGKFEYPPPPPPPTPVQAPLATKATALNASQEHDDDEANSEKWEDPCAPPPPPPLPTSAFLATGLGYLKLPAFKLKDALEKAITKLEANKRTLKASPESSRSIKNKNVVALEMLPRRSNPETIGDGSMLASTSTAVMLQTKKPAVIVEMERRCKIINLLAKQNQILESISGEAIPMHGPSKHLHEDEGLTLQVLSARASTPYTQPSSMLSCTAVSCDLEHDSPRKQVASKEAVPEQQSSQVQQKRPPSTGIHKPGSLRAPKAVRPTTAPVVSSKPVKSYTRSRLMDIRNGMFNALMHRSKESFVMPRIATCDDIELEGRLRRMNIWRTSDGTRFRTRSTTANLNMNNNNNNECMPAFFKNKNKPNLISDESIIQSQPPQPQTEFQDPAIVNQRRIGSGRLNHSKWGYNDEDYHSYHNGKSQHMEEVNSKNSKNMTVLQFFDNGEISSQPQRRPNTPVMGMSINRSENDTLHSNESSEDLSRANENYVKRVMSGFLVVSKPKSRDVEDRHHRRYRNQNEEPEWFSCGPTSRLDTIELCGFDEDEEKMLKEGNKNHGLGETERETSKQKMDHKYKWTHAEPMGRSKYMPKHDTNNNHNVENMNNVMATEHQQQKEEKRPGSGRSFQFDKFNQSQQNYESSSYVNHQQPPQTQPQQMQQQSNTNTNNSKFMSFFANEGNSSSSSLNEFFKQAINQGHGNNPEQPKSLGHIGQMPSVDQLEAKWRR

[3] = target: T3, MBP-Cup MC (Drosophila melanogaster, UniProt Q9VMA3 418-1117); test: as above; details: protein: recombinant; tags: N-terminal MBP; label: 5'-32P
T3 sequence: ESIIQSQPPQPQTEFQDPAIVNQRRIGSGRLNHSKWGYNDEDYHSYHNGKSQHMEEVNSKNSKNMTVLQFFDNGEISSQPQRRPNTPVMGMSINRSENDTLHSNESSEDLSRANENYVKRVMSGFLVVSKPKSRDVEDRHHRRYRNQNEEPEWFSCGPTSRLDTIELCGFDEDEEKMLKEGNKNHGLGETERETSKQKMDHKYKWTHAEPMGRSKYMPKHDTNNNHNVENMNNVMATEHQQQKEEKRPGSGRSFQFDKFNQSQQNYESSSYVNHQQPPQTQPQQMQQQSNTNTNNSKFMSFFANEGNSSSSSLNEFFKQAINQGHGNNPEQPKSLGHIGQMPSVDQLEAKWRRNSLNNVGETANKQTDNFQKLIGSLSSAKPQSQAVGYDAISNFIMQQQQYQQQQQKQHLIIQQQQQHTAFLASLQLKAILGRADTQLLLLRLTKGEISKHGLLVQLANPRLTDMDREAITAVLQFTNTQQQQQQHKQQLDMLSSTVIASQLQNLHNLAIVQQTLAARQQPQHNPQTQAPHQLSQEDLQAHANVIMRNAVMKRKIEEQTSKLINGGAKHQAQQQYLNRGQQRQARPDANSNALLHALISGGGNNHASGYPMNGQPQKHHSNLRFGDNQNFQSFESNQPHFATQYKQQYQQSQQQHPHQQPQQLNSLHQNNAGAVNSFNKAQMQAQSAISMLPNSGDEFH

[4] = target: T4, MBP-Cup N (Drosophila melanogaster, UniProt Q9VMA3 1-417); test: as above; details: protein: recombinant; tags: N-terminal MBP; label: 5'-32P
T4 sequence: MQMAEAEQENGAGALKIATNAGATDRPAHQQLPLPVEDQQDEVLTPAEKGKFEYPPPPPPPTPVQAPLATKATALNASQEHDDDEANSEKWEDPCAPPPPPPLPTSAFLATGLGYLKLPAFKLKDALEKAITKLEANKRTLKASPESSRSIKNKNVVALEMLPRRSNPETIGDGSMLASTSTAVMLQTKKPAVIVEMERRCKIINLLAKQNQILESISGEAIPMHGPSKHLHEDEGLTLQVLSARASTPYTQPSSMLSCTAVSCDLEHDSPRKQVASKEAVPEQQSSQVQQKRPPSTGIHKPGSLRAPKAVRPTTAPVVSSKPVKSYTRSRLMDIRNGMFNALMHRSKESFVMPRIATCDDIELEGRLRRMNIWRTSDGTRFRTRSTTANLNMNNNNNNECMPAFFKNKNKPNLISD

[5] = target: T5, MBP-Cup M (Drosophila melanogaster, UniProt Q9VMA3 418-770); test: as above; details: protein: recombinant; tags: N-terminal MBP; label: 5'-32P
T5 sequence: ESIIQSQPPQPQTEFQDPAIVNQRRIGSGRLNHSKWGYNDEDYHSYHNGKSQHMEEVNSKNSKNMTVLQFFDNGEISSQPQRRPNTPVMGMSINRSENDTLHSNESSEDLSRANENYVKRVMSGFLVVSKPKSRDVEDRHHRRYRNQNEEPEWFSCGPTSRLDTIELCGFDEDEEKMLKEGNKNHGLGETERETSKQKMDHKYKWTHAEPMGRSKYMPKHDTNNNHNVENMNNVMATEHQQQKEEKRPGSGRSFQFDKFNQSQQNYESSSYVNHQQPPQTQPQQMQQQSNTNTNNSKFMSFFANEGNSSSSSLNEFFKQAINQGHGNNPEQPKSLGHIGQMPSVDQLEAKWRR

[6] = target: T6, His8-MBP-Cup MC (Drosophila melanogaster, UniProt Q9VMA3 418-1117); test: UV crosslinking + Ni-NTA pull-down; 6 M urea wash; UV crosslinking: 16 mM HEPES pH 7.6, 50 mM K acetate, 1 mM Mg acetate, 0.8 mM ATP, 0.24 mg/ml yeast tRNA, 1 mM DTT, 10% glycerol, room temp; EMSA: deadenylation buffer with tRNA (omitted for A70 PABPC), 5% glycerol, 25 C; details: protein: recombinant; tags: N-terminal His8-MBP; label: 5'-32P
T6 sequence: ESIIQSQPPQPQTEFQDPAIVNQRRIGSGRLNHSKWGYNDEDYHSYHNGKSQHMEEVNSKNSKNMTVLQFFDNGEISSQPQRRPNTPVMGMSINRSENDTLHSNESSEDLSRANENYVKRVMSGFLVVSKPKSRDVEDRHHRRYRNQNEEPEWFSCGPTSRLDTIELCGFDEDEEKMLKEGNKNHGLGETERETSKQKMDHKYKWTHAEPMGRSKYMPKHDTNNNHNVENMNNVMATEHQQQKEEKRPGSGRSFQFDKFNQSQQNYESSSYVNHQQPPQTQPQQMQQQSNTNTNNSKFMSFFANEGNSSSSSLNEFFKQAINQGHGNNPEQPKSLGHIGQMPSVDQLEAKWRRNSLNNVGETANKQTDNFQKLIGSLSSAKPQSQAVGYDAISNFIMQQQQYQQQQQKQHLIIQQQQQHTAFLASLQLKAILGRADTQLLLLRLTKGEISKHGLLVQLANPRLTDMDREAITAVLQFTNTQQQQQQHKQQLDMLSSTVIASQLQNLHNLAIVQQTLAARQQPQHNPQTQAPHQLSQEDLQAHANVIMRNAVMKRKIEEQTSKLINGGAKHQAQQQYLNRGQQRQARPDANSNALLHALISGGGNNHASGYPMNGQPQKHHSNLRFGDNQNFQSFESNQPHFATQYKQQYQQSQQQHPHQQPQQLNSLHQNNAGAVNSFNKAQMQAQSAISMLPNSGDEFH

[7] = target: T7, His8-MBP-Cup full length (Drosophila melanogaster, UniProt Q9VMA3 1-1117); test: as above; details: protein: recombinant; tags: N-terminal His8-MBP; label: 5'-32P
T7 sequence: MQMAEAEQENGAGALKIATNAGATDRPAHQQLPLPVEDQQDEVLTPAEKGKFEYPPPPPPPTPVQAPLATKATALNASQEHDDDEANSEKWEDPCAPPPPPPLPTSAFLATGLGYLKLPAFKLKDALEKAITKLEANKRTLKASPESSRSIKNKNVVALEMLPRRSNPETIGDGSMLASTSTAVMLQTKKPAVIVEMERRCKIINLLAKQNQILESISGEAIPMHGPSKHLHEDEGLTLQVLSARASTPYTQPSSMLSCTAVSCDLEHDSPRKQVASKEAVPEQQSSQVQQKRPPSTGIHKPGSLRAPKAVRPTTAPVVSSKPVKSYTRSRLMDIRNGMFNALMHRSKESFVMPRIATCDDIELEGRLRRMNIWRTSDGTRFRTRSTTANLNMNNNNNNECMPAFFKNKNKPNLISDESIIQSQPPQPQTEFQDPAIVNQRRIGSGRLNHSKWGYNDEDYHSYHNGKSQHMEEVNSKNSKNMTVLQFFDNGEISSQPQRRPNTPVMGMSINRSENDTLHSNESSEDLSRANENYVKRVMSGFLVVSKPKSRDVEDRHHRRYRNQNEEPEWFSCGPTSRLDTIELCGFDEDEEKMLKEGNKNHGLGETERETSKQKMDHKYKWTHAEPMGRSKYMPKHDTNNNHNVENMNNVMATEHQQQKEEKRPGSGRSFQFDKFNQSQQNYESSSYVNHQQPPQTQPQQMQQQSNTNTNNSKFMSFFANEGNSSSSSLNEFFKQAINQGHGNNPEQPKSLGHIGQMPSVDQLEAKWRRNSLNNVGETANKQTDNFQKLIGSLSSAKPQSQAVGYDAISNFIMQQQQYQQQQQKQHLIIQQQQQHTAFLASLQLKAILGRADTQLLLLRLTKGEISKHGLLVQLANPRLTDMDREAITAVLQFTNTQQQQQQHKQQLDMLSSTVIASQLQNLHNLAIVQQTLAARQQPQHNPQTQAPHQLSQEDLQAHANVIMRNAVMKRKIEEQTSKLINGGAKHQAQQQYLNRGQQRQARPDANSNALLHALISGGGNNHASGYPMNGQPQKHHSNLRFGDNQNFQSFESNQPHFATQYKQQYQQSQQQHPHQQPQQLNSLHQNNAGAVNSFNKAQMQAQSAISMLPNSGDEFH

[8] = target: T8, His8-MBP-Cup C (Drosophila melanogaster, UniProt Q9VMA3 771-1117); test: as above; details: protein: recombinant; tags: N-terminal His8-MBP; label: 5'-32P
T8 sequence: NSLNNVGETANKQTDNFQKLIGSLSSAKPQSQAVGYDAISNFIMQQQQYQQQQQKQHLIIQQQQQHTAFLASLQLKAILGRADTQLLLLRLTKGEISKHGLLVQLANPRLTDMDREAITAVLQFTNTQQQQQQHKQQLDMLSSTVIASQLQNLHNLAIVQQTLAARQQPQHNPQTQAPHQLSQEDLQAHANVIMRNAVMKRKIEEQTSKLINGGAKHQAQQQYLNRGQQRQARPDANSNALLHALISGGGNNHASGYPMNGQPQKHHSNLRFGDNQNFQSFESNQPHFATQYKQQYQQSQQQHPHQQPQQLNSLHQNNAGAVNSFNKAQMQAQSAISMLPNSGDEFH

[9] = target: T9, His8-MBP-Cup M (Drosophila melanogaster, UniProt Q9VMA3 418-770); test: as above; details: protein: recombinant; tags: N-terminal His8-MBP; label: 5'-32P
T9 sequence: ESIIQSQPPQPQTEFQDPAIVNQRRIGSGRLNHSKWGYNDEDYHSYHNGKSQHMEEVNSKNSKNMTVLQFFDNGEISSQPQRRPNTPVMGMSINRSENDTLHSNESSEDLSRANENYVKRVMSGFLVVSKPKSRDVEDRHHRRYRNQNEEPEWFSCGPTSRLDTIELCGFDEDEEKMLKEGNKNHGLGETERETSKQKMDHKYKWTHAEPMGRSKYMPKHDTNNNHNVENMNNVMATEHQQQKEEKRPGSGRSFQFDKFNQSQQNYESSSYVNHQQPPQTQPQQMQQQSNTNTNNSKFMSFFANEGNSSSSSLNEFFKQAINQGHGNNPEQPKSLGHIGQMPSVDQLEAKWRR

Measured: binding result

GGGUUUAGUGCGCACGUG (ssRNA) [18nt RNA oligonucleotide]
binds: [1] | [2] | [3] | [4] | [5] | [6] | [7] | [8] | [9]
